# Experimental data: US20130164299A1
# Assays:
# CLEC2D iso2-Fc [1] = assay: ELISA, coated CLEC2D iso2-Fc, direct detection of the Fc portion
# CLEC2D iso4-Fc [2] = assay: ELISA, coated CLEC2D iso4-Fc, direct detection of the Fc portion
# CLEC2A-Fc protein [3] = biological target: CLEC2A-Fc protein (UniProt Q6UVW9); assay: ELISA, coated CLEC2A-Fc, direct detection of the Fc portion
# [4] = biological target: LLT1-Fc fusion protein (human) (UniProt Q9UHP7); assay: ELISA, coated LLT1-Fc, direct detection of the Fc portion
# [5] = biological target: lectin-like transcript 1 (LLT1), recombinantly expressed on cells (human) (UniProt Q9UHP7); assay: cell-based or functional assay
# [6] = biological target: CD20 on C1R and C1R-LLT1 cells (UniProt P11836); assay: cell-based or functional assay
# CD161, on cells = CD161, on cells (UniProt Q12918); assay: cell-based or functional assay
# CLEC2D iso4-Fc [7] = assay: ELISA, coated CLEC2D iso4-Fc, anti-mIg-HRP detection
# CLEC2A-Fc protein [8] = biological target: CLEC2A-Fc protein (UniProt Q6UVW9); assay: ELISA, coated CLEC2A-Fc, anti-mIg-HRP detection
# CLEC2D iso2-Fc [9] = assay: ELISA, coated CLEC2D iso2-Fc, anti-mIg-HRP detection
# [10] = biological target: LLT1-Fc fusion protein (human) (UniProt Q9UHP7); assay: ELISA, coated LLT1-Fc, anti-mIg-HRP detection
# lectin-like transcript 1 (LLT1), recombinantly expressed on cells (human), sequence (Q9UHP7 whole entry): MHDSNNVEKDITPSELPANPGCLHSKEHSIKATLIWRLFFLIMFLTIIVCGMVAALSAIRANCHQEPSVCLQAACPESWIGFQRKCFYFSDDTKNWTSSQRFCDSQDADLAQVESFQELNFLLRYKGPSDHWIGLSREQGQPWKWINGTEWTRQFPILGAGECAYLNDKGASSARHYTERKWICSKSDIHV
# LLT1-Fc fusion protein (human), sequence (Q9UHP7 60-191 limits assumed): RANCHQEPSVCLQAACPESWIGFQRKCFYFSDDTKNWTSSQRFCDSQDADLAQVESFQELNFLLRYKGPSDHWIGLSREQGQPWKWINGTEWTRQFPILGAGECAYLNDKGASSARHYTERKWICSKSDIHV
# CLEC2A-Fc protein, sequence (Q6UVW9 49-174): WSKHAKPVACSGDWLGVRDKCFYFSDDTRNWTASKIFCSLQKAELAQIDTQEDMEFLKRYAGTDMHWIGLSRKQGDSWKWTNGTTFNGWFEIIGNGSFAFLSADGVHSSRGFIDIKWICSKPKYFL
# CD20 on C1R and C1R-LLT1 cells, sequence (P11836 whole entry): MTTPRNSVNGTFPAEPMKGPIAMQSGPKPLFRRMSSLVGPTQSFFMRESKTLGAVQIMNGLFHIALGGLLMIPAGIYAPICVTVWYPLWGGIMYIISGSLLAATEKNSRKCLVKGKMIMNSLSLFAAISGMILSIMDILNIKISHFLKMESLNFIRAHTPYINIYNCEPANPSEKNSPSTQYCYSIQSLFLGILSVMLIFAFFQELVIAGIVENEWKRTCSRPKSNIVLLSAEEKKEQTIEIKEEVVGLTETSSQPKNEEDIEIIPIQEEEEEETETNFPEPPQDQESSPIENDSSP
substance,measurement,setting,value
HRP-conjugated anti-human Ig antibody,OD,CLEC2D iso2-Fc [1],1.01 OD
same,OD,CLEC2D iso4-Fc [2],1.04 OD
same,OD,CLEC2A-Fc protein [3],1.15 OD
same,OD,[4],1.08 OD
AF3480 (antibody),% CD107a+ NK cells (NK cells + C1R-LLT1),[5],5.3%
same,% IFN-γ+ NK cells (NK cells + C1R-LLT1),[5],3.3%
anti-CD20 (rituximab) (antibody),ADCC: specific lysis of C1R and C1R-LLT1 cells by NK cells (chromium release); antibody concentration giving lysis,[6],> 0.16 mg/mL
anti-CD161 mAb HP3G10 (antibody),% CD107a+ NK cells (NK cells + C1R-LLT1),"CD161, on cells",9.5%
same,"% CD107a+ NK cells, Raji target cells (no mAb 10.3)","CD161, on cells",13.1%
same,"% CD107a+ NK cells, Ramos target cells (no mAb 8.1)","CD161, on cells",10.9%
same,"% CD107a+ NK cells, SUDHL4 target cells (no mAb 11.6)","CD161, on cells",17.5%
same,% IFN-γ+ NK cells (NK cells + C1R-LLT1),"CD161, on cells",5.3%
MAB3480 (antibody),OD,CLEC2D iso4-Fc [7],0.112 OD
same,OD,CLEC2A-Fc protein [8],0.104 OD
same,OD,CLEC2D iso2-Fc [9],0.117 OD
same,% CD107a+ NK cells (NK cells + C1R-LLT1),[5],4.7%
same,% IFN-γ+ NK cells (NK cells + C1R-LLT1),[5],3%
same,OD,[10],1.21 OD
anti-CD161 mAb DX12 (antibody),% CD107a+ NK cells (NK cells + C1R-LLT1),"CD161, on cells",8.1%
same,% IFN-γ+ NK cells (NK cells + C1R-LLT1),"CD161, on cells",5.4%
anti-CD161 mAb 191B8 (antibody),% CD107a+ NK cells (NK cells + C1R-LLT1),"CD161, on cells",13.2%
same,% IFN-γ+ NK cells (NK cells + C1R-LLT1),"CD161, on cells",7.4%
